Results on two molecules are retold here after publication PMC4403255 (Genes & Development, 2015).

In assay [1] the target is Full extracellular domain of mouse amyloid precursor protein (mouse) (UniProt P12023). The assay can be described thus: SEC. (In general: In gel filtration, larger molecules generally elute earlier.)
The target in assay [2] is T1, DR6-Fc fusion (UniProt Q9EPU5 42-349).
T1 sequence (looked up): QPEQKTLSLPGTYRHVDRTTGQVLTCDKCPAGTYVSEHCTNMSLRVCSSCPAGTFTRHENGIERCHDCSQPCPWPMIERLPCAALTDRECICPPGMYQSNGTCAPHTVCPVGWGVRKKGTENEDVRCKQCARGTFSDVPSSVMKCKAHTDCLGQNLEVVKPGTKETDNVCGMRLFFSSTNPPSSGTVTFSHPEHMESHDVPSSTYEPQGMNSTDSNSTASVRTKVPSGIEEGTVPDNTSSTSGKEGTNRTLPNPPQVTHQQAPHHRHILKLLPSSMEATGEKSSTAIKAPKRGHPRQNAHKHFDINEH
Put plainly: BLI. (Biolayer interferometry detects binding as a change in optical thickness at a sensor tip.)

As a reminder, the stoichiometry N is a count of units in the complex or per binding partner. As for “Full extracellular domain of mouse amyloid precursor protein (from UniProt P12023-2 18-596) (domain or fragment)”, the stoichiometry N in assay [1] was determined as 2.

B1: AP-APP-E2 (amino acids 287-506), wild type (domain or fragment, UniProt P12023-2 287-506, looked up)
chain: VRVPTTAASTPDAVDKYLETPGDENEHAHFQKAKERLEAKHRERMSQVMREWEEAERQAKNLPKADKKAVIQHFQEKVESLEQEAANERQQLVETHMARVEAMLNDRRRLALENYITALQAVPPRPHHVFNMLKKYVRAEQKDRQHTLKHFEHVRMVDPKKAAQIRSQVMTHLRVIYERMNQSLSLLYNVPAVAEEIQDEVDELLQKEQNYSDDVLANMI
In general, Kd refers to the concentration at which binding is half-saturated. A lower Kd goes with a tighter complex. For B1, binding in assay [2] was characterised by a dissociation constant (Kd) of 85 nM.
